Measured values as given in the supplement of paper PMC10724198.
± gives the standard deviation of the averaged measurements.

Columns and labels:
Saccharomyces cerevisiae [1] = assay: protein stability index of tFT-peptide fusion (C-terminal peptide) (PSI (0-1 scale)); higher = more stable (slower turnover); conditions: genetic background: wild type; temperature: 30 C
Saccharomyces cerevisiae [2] = assay: as above
Description: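 MPS profiling in S. cerevisiae of the tFT-X12 degron library: putative degron peptides plus stable controls, 12 aa, fused to the C-terminus of a sfGFP-mCherry timer. Cells are FACS-sorted into 8 mCherry/sfGFP bins and deep-sequenced. PSI runs from 0 (unstable) to 1 (stable). Backgrounds are wild type, das1Δ and doa10Δ at 30 °C, and wild type, das1Δ, cdc34-1 and cdc53-1 at 37 °C; 2-3 technical replicates each.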

[3] = genetic background: cdc34-1, temperature: 37 C
[4] = genetic background: cdc53-1, temperature: 37 C
[5] = genetic background: das1 deletion, temperature: 30 C
[6] = genetic background: das1 deletion, temperature: 37 C
[7] = genetic background: doa10 deletion, temperature: 30 C
[8] = genetic background: wild type, temperature: 30 C
[9] = genetic background: wild type, temperature: 37 C
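Further: PSI is a weighted mean of sequencing reads over stability bins, variants kept only with over 10 reads, mCherry proximal and sfGFP distal, peptide attached via GGGS linker.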

| Sequence | protein stability index (Saccharomyces cerevisiae [1]) | protein stability index (Saccharomyces cerevisiae [2]; [3]) | protein stability index (Saccharomyces cerevisiae [2]; [4]) | protein stability index (Saccharomyces cerevisiae [2]; [5]) | protein stability index (Saccharomyces cerevisiae [2]; [6]) | protein stability index (Saccharomyces cerevisiae [2]; [7]) | protein stability index (Saccharomyces cerevisiae [2]; [8]) | protein stability index (Saccharomyces cerevisiae [2]; [9]) |
| --- | --- | --- | --- | --- | --- | --- | --- | --- |
| FFRLFAPLLVVL | 0.212 ± 0.01 | 0.113 ± 0.02 | 0.0677 ± 0.015 | 0.188 ± 0.028 | 0.23 ± 0.033 | 0.2621 ± 0.0019 | 0.178 ± 0.019 | 0.1836 ± 0.0014 |
| VFGFLVFYVCVR | 0.268 ± 0.0095 | 0.0903 ± 0.036 | 0.146 ± 0.021 | 0.153 ± 0.047 | 0.282 ± 0.014 | 0.135 ± 0.027 | 0.151 ± 0.026 | 0.248 ± 0.026 |
| RLCKGQKYTKIN | 0.105 ± 0.015 | 0.597 ± 0.014 | 0.718 ± 0.02 | 0.659 ± 0.023 | 0.707 ± 0.034 | 0.0852 ± 0.02 | 0.105 ± 0.026 | 0.155 ± 0.043 |
| FLFFWRASLFFW | 0.229 ± 0.023 | 0.116 ± 0.0025 | 0.164 ± 0.0095 | 0.183 ± 0.029 | 0.278 ± 0.027 | 0.178 ± 0.018 | 0.15 ± 0.029 | 0.191 ± 0.022 |
| RLSLCLAVLFLV | 0.205 ± 0.035 | 0.433 ± 0.062 | 0.574 ± 0.035 | 0.564 ± 0.035 | 0.6468 ± 0.0032 | 0.116 ± 0.0062 | 0.126 ± 0.0059 | 0.146 ± 0.009 |
| ARCKRSLSGGIG | 0.588 ± 0.14 | 0.489 ± 0.034 | 0.579 ± 0.02 | 0.512 ± 0.012 | 0.5452 ± 0.00083 | 0.531 ± 0.0073 | 0.524 ± 0.022 | 0.54 ± 0.011 |
| FSLLLSLSLFHC | 0.31 ± 0.015 | 0.547 ± 0.053 | 0.555 ± 0.018 | 0.534 ± 0.0069 | 0.549 ± 0.006 | 0.183 ± 0.0059 | 0.2 ± 0.025 | 0.356 ± 0.0068 |
| RKFRAWIRITRT | 0.377 ± 0.013 | 0.627 ± 0.042 | 0.725 ± 0.031 | 0.635 ± 0.022 | 0.71526 ± 0.00022 | 0.219 ± 0.01 | 0.247 ± 0.048 | 0.471 ± 0.025 |
| AFPSSVILMVFS | 0.332 ± 0.019 | 0.323 ± 0.036 | 0.32 ± 0.034 | 0.29 ± 0.032 | 0.425 ± 0.0063 | 0.228 ± 0.0063 | 0.287 ± 0.018 | 0.3872 ± 0.0029 |
| SPLLPPPLLFLS | 0.211 ± 0.0097 | 0.596 ± 0.056 | 0.7307 ± 0.0032 | 0.6555 ± 0.0025 | 0.729 ± 0.009 | 0.1475 ± 0.0013 | 0.168 ± 0.033 | 0.241 ± 0.033 |
| RVWIVCYHVSSY | 0.262 ± 0.076 | 0.214 ± 0.016 | 0.3264 ± 0.00073 | 0.204 ± 0.024 | 0.371 ± 0.011 | 0.196 ± 0.0097 | 0.207 ± 0.0069 | 0.349 ± 0.022 |
| FEVLINIWFLSA | 0.262 ± 0.019 | 0.272 ± 0.028 | 0.388 ± 0.026 | 0.3 ± 0.042 | 0.422 ± 0.0066 | 0.185 ± 0.011 | 0.19 ± 0.018 | 0.324 ± 0.013 |
| FAIPFVLFFRVT | 0.224 ± 0.07 | 0.161 ± 0.02 | 0.134 ± 0.0062 | 0.257 ± 0.03 | 0.333 ± 0.017 | 0.2593 ± 0.0021 | 0.173 ± 0.024 | 0.231 ± 0.013 |
| WCAMITVFCGSG | 0.34 ± 0.016 | 0.268 ± 0.035 | 0.29 ± 0.041 | 0.214 ± 0.037 | 0.4101 ± 0.0027 | 0.179 ± 0.015 | 0.208 ± 0.033 | 0.3796 ± 0.0026 |
| GVRAGVRRAGVG | 0.402 ± 0.011 | 0.308 ± 0.019 | 0.418 ± 0.0075 | 0.399 ± 0.0055 | 0.414 ± 0.014 | 0.3927 ± 0.0033 | 0.382 ± 0.0068 | 0.402 ± 0.0045 |
| YSVNSLFCKVFG | 0.417 ± 0.032 | 0.469 ± 0.012 | 0.4777 ± 0.00052 | 0.348 ± 0.031 | 0.541 ± 0.0043 | 0.3135 ± 0.0031 | 0.361 ± 0.022 | 0.5054 ± 0.002 |
| LCIRHFRLLELL | 0.276 ± 0.0069 | 0.5607 ± 0.0046 | 0.72 ± 0.014 | 0.642 ± 0.033 | 0.728 ± 0.041 | 0.165 ± 0.011 | 0.167 ± 0.016 | 0.268 ± 0.021 |

| Sequence | protein stability index (Saccharomyces cerevisiae [1]) | protein stability index (Saccharomyces cerevisiae [2]; [3]) | protein stability index (Saccharomyces cerevisiae [2]; [4]) | protein stability index (Saccharomyces cerevisiae [2]; [5]) | protein stability index (Saccharomyces cerevisiae [2]; [6]) | protein stability index (Saccharomyces cerevisiae [2]; [7]) | protein stability index (Saccharomyces cerevisiae [2]; [8]) | protein stability index (Saccharomyces cerevisiae [2]; [9]) |
| --- | --- | --- | --- | --- | --- | --- | --- | --- |
| PSCLLVAPRFSS | 0.755 ± 0.017 | 0.672 ± 0.036 | 0.745 ± 0.015 | 0.67 ± 0.022 | 0.712 ± 0.027 | 0.677 ± 0.014 | 0.694 ± 0.019 | 0.715 ± 0.0045 |
| PVILISWQLRCY | 0.0229 ± 0.026 | 0.018 ± 0.0019 | 0.0284 ± 0.0013 | 0.0318 ± 0.01 | 0.049 ± 0.011 | 0.0188 ± 0.0012 | 0.0174 ± 0.0032 | 0.0417 ± 0.0029 |
| GGSHVWKFYRNF | 0.4225 ± 0.0038 | 0.702 ± 0.09 | 0.7673 ± 0.0011 | 0.662 ± 0.031 | 0.767 ± 0.034 | 0.224 ± 0.0086 | 0.285 ± 0.027 | 0.5523 ± 0.0027 |
| ARALLGVGWYWV | 0.417 ± 0.024 | 0.654 ± 0.015 | 0.7854 ± 0.0065 | 0.645 ± 0.018 | 0.761 ± 0.02 | 0.225 ± 0.014 | 0.272 ± 0.02 | 0.537 ± 0.0059 |
| SVFVFFGFIDFL | 0.469 ± 0.011 | 0.52 ± 0.015 | 0.589 ± 0.12 | 0.404 ± 0.036 | 0.6007 ± 0.0035 | 0.369 ± 0.015 | 0.412 ± 0.036 | 0.581 ± 0.0099 |
| FPFFVFRVWFGA | 0.464 ± 0.014 | 0.4642 ± 0.0036 | 0.535 ± 0.01 | 0.414 ± 0.026 | 0.565 ± 0.006 | 0.32953 ± 0.00015 | 0.346 ± 0.033 | 0.502 ± 0.022 |
| FLSLSFLLLHFP | 0.471 ± 0.064 | 0.398 ± 0.018 | 0.39044 ± 0.00026 | 0.385 ± 0.04 | 0.535 ± 0.0059 | 0.543 ± 0.017 | 0.434 ± 0.041 | 0.479 ± 0.005 |
| YVQTKKTRYVLV | 0.454 ± 0.055 | 0.483 ± 0.027 | 0.506 ± 0.027 | 0.383 ± 0.025 | 0.543 ± 0.011 | 0.32 ± 0.0047 | 0.343 ± 0.018 | 0.5038 ± 0.0023 |
| YLVSFVAFLRLF | 0.143 ± 0.19 | 0.336 ± 0.02 | 0.446 ± 0.013 | 0.422 ± 0.025 | 0.5418 ± 0.0026 | 0.0967 ± 0.012 | 0.0919 ± 0.018 | 0.1 ± 0.019 |
| CVFVRCVDCMSG | 0.465 ± 0.024 | 0.553 ± 0.013 | 0.544 ± 0.041 | 0.384 ± 0.031 | 0.594 ± 0.0081 | 0.354 ± 0.034 | 0.387 ± 0.015 | 0.579 ± 0.0085 |
| RRPVHTHTSVSP | 0.606 ± 0.25 | 0.7449 ± 0.00016 | 0.742 ± 0.05 | 0.652 ± 0.026 | 0.733 ± 0.0094 | 0.658 ± 0.022 | 0.6561 ± 0.0035 | 0.701 ± 0.012 |
| LFPLFTLIFVHL | 0.1989 ± 0.00028 | 0.224 ± 0.016 | 0.212 ± 0.017 | 0.265 ± 0.023 | 0.4169 ± 0.0011 | 0.119 ± 0.025 | 0.115 ± 0.019 | 0.1696 ± 0.00078 |
| PPPPHSAPLFLS | 0.37 ± 0.0087 | 0.604 ± 0.007 | 0.697 ± 0.011 | 0.651 ± 0.019 | 0.694 ± 0.011 | 0.227 ± 0.0096 | 0.261 ± 0.032 | 0.458 ± 0.011 |
| FCLMLWGAVLFL | 0.314 ± 0.025 | 0.216 ± 0.014 | 0.29 ± 0.0077 | 0.235 ± 0.019 | 0.364 ± 0.047 | 0.226 ± 0.015 | 0.223 ± 0.03 | 0.33 ± 0.0042 |
| ARSGGYLMVVLV | 0.463 ± 0.031 | 0.56 ± 0.033 | 0.599 ± 0.011 | 0.41 ± 0.032 | 0.601 ± 0.011 | 0.351 ± 0.0013 | 0.384 ± 0.023 | 0.562 ± 0.038 |
| GGFLLRGLFLFL | 0.525 ± 0.049 | 0.613 ± 0.032 | 0.652 ± 0.016 | 0.55 ± 0.024 | 0.6623 ± 0.0034 | 0.542 ± 0.025 | 0.52 ± 0.022 | 0.63 ± 0.015 |
